Test results as given in PMC12355267, “Human Helicase DDX5 is Hijacked by SARS-CoV‑2 Nsp13 Helicase to Enhance RNA Unwinding” (ACS Omega, 2025).

Assays:
[1] = target: T1, SARS-CoV-2 Nsp13 helicase (SARS-CoV-2, UniProt P0DTD1 5325-5925); assay: MST; conditions: both partners purified
T1 construct: also called Nsp13 helicase of SARS-CoV-2

[2] = target: T1, SARS-CoV-2 Nsp13 helicase; conditions: both partners purified

Row | Binder | IC50 [1] | Kd [2]
1 | full-length DDX5 (flDDX5) (enzyme, human, UniProt P17844 1-614, looked up, human DEAD-box helicase DDX5, native full-length gene in pET30a, 614 residues (1-614); also called full-length DDX5 (1–614); unlabeled flDDX5) MSGYSSDRDRGRDRGFGAPRFGGSRAGPLSGKKFGNPGEKLVKKKWNLDELPKFEKNFYQEHPDLARRTAQEVETYRRSKEITVRGHNCPKPVLNFYEANFPANVMDVIARQNFTEPTAIQAQGWPVALSGLDMVGVAQTGSGKTLSYLLPAIVHINHQPFLERGDGPICLVLAPTRELAQQVQQVAAEYCRACRLKSTCIYGGAPKGPQIRDLERGVEICIATPGRLIDFLECGKTNLRRTTYLVLDEADRMLDMGFEPQIRKIVDQIRPDRQTLMWSATWPKEVRQLAEDFLKDYIHINIGALELSANHNILQIVDVCHDVEKDEKLIRLMEEIMSEKENKTIVFVETKRRCDELTRKMRRDGWPAMGIHGDKSQQERDWVLNEFKHGKAPILIATDVASRGLDVEDVKFVINYDYPNSSEDYIHRIGRTARSTKTGTAYTFFTPNNIKQVSDLISVLREANQAINPKLLQLVEDRGSGRSRGRGGMKDDRRDRYSAGKRGGFNTFRDRENYDRGYSSLLKRDFGAKTQNGVYSAANYTNGSFGSNFVSAGIQTSFRTGNPTGTYQNGYDSTQQYGSNVPNMHNGMNQQAYAYPATAAAPMIGYPMPTGYSQ | 0.325 µM | –
2 | RecA1 domain of DDX5 (1–303) (domain or fragment, human, UniProt P17844 1-303, looked up, human DDX5, RecA1 domain with the N-terminal region, residues 1-303; probably as DDX5ΔC (pETM-13, His-tag), surmised; source: E. coli (cloned from the gene optimized for E. coli expression), purified) MSGYSSDRDRGRDRGFGAPRFGGSRAGPLSGKKFGNPGEKLVKKKWNLDELPKFEKNFYQEHPDLARRTAQEVETYRRSKEITVRGHNCPKPVLNFYEANFPANVMDVIARQNFTEPTAIQAQGWPVALSGLDMVGVAQTGSGKTLSYLLPAIVHINHQPFLERGDGPICLVLAPTRELAQQVQQVAAEYCRACRLKSTCIYGGAPKGPQIRDLERGVEICIATPGRLIDFLECGKTNLRRTTYLVLDEADRMLDMGFEPQIRKIVDQIRPDRQTLMWSATWPKEVRQLAEDFLKDYIHINIG | 16.2 µM | –
3 | labeled RecA1 domain of DDX5 (domain or fragment, human, UniProt P17844 1-303, looked up, fluorescent label (dye and site not stated), human DDX5, RecA1 domain with the N-terminal region, residues 1-303; also called fluorescent RecA1; source: E. coli (cloned from the gene optimized for E. coli expression), purified, then labeled) MSGYSSDRDRGRDRGFGAPRFGGSRAGPLSGKKFGNPGEKLVKKKWNLDELPKFEKNFYQEHPDLARRTAQEVETYRRSKEITVRGHNCPKPVLNFYEANFPANVMDVIARQNFTEPTAIQAQGWPVALSGLDMVGVAQTGSGKTLSYLLPAIVHINHQPFLERGDGPICLVLAPTRELAQQVQQVAAEYCRACRLKSTCIYGGAPKGPQIRDLERGVEICIATPGRLIDFLECGKTNLRRTTYLVLDEADRMLDMGFEPQIRKIVDQIRPDRQTLMWSATWPKEVRQLAEDFLKDYIHINIG | – | 9.1 ± 1.3 µM
